Assay results published in PMC4243239 (Nature communications, 2014).

T1: B. subtilis FtsZ with a 15-residue recombinant N-terminal T7 epitope tag (B. subtilis, UniProt P17865 1-382)
T1 sequence (looked up): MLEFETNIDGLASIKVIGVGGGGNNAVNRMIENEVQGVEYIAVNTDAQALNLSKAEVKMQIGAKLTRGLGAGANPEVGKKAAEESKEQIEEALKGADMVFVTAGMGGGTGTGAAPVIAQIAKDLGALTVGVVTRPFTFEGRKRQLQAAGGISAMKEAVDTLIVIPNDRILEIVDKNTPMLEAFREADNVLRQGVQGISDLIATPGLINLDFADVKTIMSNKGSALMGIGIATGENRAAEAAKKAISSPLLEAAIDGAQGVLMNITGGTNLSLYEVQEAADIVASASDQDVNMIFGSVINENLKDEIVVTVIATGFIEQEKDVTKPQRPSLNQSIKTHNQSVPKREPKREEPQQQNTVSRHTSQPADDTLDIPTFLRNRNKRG

T2: B. subtilis FtsZ, untagged (B. subtilis, UniProt P17865 1-382)
T2 sequence: T1 sequence (looked up)

B1: B. subtilis EzrA cytoplasmic domain lacking the N-terminal 21 residue trans-membrane helix, BsEzrA_(22-562) (domain or fragment, UniProt O34894 22-562, looked up)
chain: RKKIYAEIDRLESWKIEILNRSIVEEMSKIKHLKMTGQTEEFFEKWREEWDEIVTAHMPKVEELLYDAEENADKYRFKKANQVLVHIDDLLTAAESSIEKILREISDLVTSEEKSREEIEQVRERYSKSRKNLLAYSHLYGELYDSLEKDLDEIWSGIKQFEEETEGGNYITARKVLLEQDRNLERLQSYIDDVPKLLADCKQTVPGQIAKLKDGYGEMKEKGYKLEHIQLDKELENLSNQLKRAEHVLMTELDIDEASAILQLIDENIQSVYQQLEGEVEAGQSVLSKMPELIIAYDKLKEEKEHTKAETELVKESYRLTAGELGKQQAFEKRLDEIGKLLSSVKDKLDAEHVAYSLLVEEVASIEKQIEEVKKEHAEYRENLQALRKEELQARETLSNLKKTISETARLLKTSNIPGIPSHIQEMLENAHHHIQETVNQLNELPLNMEEAGAHLKQAEDIVNRASRESEELVEQVILIEKIIQFGNRFRSQNHILSEQLKEAERRFYAFDYDDSYEIAAAAVEKAAPGAVEKIKADISA
B2: BsEzrA_(22–217), spectrin repeats one and two of B. subtilis EzrA (domain or fragment, UniProt O34894 22-217, looked up)
chain: RKKIYAEIDRLESWKIEILNRSIVEEMSKIKHLKMTGQTEEFFEKWREEWDEIVTAHMPKVEELLYDAEENADKYRFKKANQVLVHIDDLLTAAESSIEKILREISDLVTSEEKSREEIEQVRERYSKSRKNLLAYSHLYGELYDSLEKDLDEIWSGIKQFEEETEGGNYITARKVLLEQDRNLERLQSYIDDVPK

Legend:
[1] = target: the molecule itself; experiment: crystal structure
[2] = target: T1, B. subtilis FtsZ with a 15-residue …; experiment: cross-linking
[3] = target: T2, B. subtilis FtsZ, untagged; experiment: SPR
[4] = target: the molecule itself; experiment: SEC-MALS

Binder | binding result [1] | stoichiometry N [2] | Kd [3] [µM] | binding result [4]
B1 | binds | 1 EzrA:FtsZ |  | 
B2 |  |  | 13.7 ± 1.5 | binds
